For one data set, the target named is T1, ZmUB3 (Zea mays, UniProt A0A804P0G2 1-407).
T1 sequence: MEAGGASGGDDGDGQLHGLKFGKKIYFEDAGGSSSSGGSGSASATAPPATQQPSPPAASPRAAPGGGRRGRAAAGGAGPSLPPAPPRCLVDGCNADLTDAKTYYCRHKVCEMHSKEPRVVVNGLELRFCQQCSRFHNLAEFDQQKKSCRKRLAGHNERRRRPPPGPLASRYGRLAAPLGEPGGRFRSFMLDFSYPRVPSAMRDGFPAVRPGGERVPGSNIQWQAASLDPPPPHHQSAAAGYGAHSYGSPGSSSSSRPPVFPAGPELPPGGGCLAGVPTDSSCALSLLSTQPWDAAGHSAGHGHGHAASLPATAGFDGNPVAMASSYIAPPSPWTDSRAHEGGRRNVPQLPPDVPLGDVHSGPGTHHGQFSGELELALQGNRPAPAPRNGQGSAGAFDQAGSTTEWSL
The data set is described as follows: EMSA. (In general: A gel shift assay detects complexes by their altered migration in electrophoresis.)

The target in another data set is ZmMYB42 (Zea mays, UniProt K7V4N7 1-264). The data set can be described thus: EMSA.

B1: ZmMYB42 promoter GTAC 40 bp probe (dsDNA)
DNA 1: TAACAAGGGCTTAACATGGTACGGTTTATTATATGTCAGA
DNA 2: TCTGACATATAATAAACCGTACCATGTTAAGCCCTTGTTA
In the case of B1, the binding result in the data set with ZmUB3 was “binds”.

B2: ZmLHT14 MBS 40 bp probe (dsDNA)
DNA 1: GCGGTGCCGGAGTAGATAACTGGTACTACAAAACACAATA
DNA 2: TATTGTGTTTTGTAGTACCAGTTATCTACTCCGGCACCGC
As for B2, in the data set with ZmMYB42, the binding result was “binds”.

B3: ZmSWEET10 MBS 40 bp probe (dsDNA)
DNA 1: TCCCGGCCCTGTGCTGATAACTGTCTCTCTTTATTACGTG
DNA 2: CACGTAATAAAGAGAGACAGTTATCAGCACAGGGCCGGGA
On to B3, for which the binding result with ZmMYB42 is recorded as “binds”.

B4: ZmMYB63 promoter GTAC 40 bp probe (dsDNA)
DNA 1: AAGTTTTGCGCACAGTGGTACGGAGGCGGACTGCTCCAAT
DNA 2: ATTGGAGCAGTCCGCCTCCGTACCACTGTGCGCAAAACTT
Consider B4, for which the binding result with ZmUB3 was “binds”.

B5: ZmSWEET13c MBS 40 bp probe (dsDNA)
DNA 1: ATGCTGTATTGAGTCCCCCGTTGTCGGAAATTAAAATTAT
DNA 2: ATAATTTTAATTTCCGACAACGGGGGACTCAATACAGCAT
Turning to B5, the binding result with ZmMYB42 is reported as “binds”.

(Values after article PMC11772326.)
